According to the RNAGym collection of RNA variant scans (doi:10.7554/elife.80360):

B1: Hammerhead Ribozyme (parent)
chain: ACCGGAUGUGCUUUCCGGUCUGAUGAGUCCGUGAGGACGAAACAG

Variants of: B1
Assay: self-cleavage, relative activity (ratio to wild type); higher = more cleavage; co-transcriptional

Row | Variant | self-cleavage
1 | ACCGGAUGUGCUUUCCGGUCUGAUGAGUUCGUGACGACGAAACAG [C29U G35C] | 0.778
2 | ACCGGAUGUGCUUUCCGGUCUGAUGAGUUCGUGAUGACGAAACAG [C29U G35U] | 0.744
3 | ACCGGAUGUGCUUUCCGGUCUGAUGAGUUCGUGAAGACGAAACAG [C29U G35A] | 0.636
4 | ACCGGAUGUGCUUUCCGGUCUGAUGAGUUCGUGAGGACGAAACCG [C29U A44C] | 0.44
5 | ACCGGAUGUGCUUUCCGGUCUGAUGAGUUCGUGAGGACGAAACGG [C29U A44G] | 1.27
6 | ACCGGAUGUGCUUUCCGGUCUGAUGAGUUCGUGAGGACGAAACUG [C29U A44U] | 0.542
7 | ACCGGAUGUGCUUUCCGGUCUGAUGAGUCGGUGAGGACGUAACAG [C30G A40U] | 0.283
8 | ACCGGAUGUGCUUUCCGGUCUGAUGAGUCGGUGAGGACGCAACAG [C30G A40C] | 0.425
9 | ACCGGAUGUGCUUUCCGGUCUGAUGAGUCGGUGAGGACGGAACAG [C30G A40G] | 0.305
10 | ACCGGAUGUGCUUUCCGGUCUGAUGAGUUCGUGGGGACGAAACAG [C29U A34G] | 0.657
11 | ACCGGAUGUGCUUUCCGGUCUGAUGAGUUCGUGUGGACGAAACAG [C29U A34U] | 0.603
12 | ACCGGAUGUGCUUUCCGGUCUGAUGAGUUCGUGCGGACGAAACAG [C29U A34C] | 0.723
13 | ACCGGAUGUGCUUUCCGGUCUGAUGAGUCAGUGAGAACGAAACAG [C30A G36A] | 0.573
14 | ACCGGAUGUGCUUUCCGGUCUGAUGAGUCAGUGAGUACGAAACAG [C30A G36U] | 0.639
15 | ACCGGAUGUGCUUUCCGGUCUGAUGAGUCAGUGAGCACGAAACAG [C30A G36C] | 0.525
16 | ACCGGAUGUGCUUUCCGGUCUGAUGAGUUCGUGAGGACGACACAG [C29U A41C] | 0.319
17 | ACCGGAUGUGCUUUCCGGUCUGAUGAGUUCGUGAGGACGAUACAG [C29U A41U] | 0.337
18 | ACCGGAUGUGCUUUCCGGUCUGAUGAGUUCGUGAGGACGAGACAG [C29U A41G] | 0.275
19 | ACCGGAUGUGCUUUCCGGUCUGAUGAGUCGGUGAGGGCGAAACAG [C30G A37G] | 0.571

Row | Variant | self-cleavage
20 | ACCGGAUGUGCUUUCCGGUCUGAUGAGUCGGUGAGGCCGAAACAG [C30G A37C] | 0.337
21 | ACCGGAUGUGCUUUCCGGUCUGAUGAGUCGGUGAGGUCGAAACAG [C30G A37U] | 0.358
22 | ACCGGAUGUGCUUUCCGGUCUGAUGAGUGCGUGAGGACUAAACAG [C29G G39U] | 0.334
23 | ACCGGAUGUGCUUUCCGGUCUGAUGAGUUCGUGAGGACGAAACAA [C29U G45A] | 0.454
24 | ACCGGAUGUGCUUUCCGGUCUGAUGAGUUCGUGAGGACGAAACAU [C29U G45U] | 0.596
25 | ACCGGAUGUGCUUUCCGGUCUGAUGAGUUCGUGAGGACGAAACAC [C29U G45C] | 0.443
26 | ACCGGAUGUGCUUUCCGGUCUGAUGAGUUCGUGAGGACGAAAGAG [C29U C43G] | 0.319
27 | ACCGGAUGUGCUUUCCGGUCUGAUGAGUUCGUGAGGACGAAAUAG [C29U C43U] | 0.47
28 | ACCGGAUGUGCUUUCCGGUCUGAUGAGUUCGUGAGGACGAAAAAG [C29U C43A] | 0.337
29 | ACCGGAUGUGCUUUCCGGUCUGAUGAGUCAGUGAGGACGAAACAG [C30A] | 0.919
30 | ACCGGAUGUGCUUUCCGGUCUGAUGAGUCGGUGAGGACGAAACAG [C30G] | 0.867
31 | ACCGGAUGUGCUUUCCGGUCUGAUGAGUUCGUAAGGACGAAACAG [C29U G33A] | 0.959
32 | ACCGGAUGUGCUUUCCGGUCUGAUGAGUUCGUCAGGACGAAACAG [C29U G33C] | 1.09
33 | ACCGGAUGUGCUUUCCGGUCUGAUGAGUUCGUUAGGACGAAACAG [C29U G33U] | 0.92
34 | ACCGGAUGUGCUUUCCGGUCUGAUGAGUGCGGGAGGACGAAACAG [C29G U32G] | 0.553
35 | ACCGGAUGUGCUUUCCGGUCUGAUGAGUGCGCGAGGACGAAACAG [C29G U32C] | 0.708
36 | ACCGGAUGUGCUUUCCGGUCUGAUGAGUGCGAGAGGACGAAACAG [C29G U32A] | 0.847
37 | ACCGGAUGUGCUUUCCGGUCUGAUGAGUUCGUGAGGACGAAUCAG [C29U A42U] | 0.367
38 | ACCGGAUGUGCUUUCCGGUCUGAUGAGUUCGUGAGGACGAACCAG [C29U A42C] | 0.326

Row | Variant | self-cleavage
39 | ACCGGAUGUGCUUUCCGGUCUGAUGAGUUCGUGAGGACGAAGCAG [C29U A42G] | 0.283
40 | ACCGGAUGUGCUUUCCGGUCUGAUGAGUUCGUGAGGACAAAACAG [C29U G39A] | 0.406
41 | ACCGGAUGUGCUUUCCGGUCUGAUGAGUUCGUGAGGACCAAACAG [C29U G39C] | 0.326
42 | ACCGGAUGUGCUUUCCGGUCUGAUGAGUUCGUGAGGACUAAACAG [C29U G39U] | 0.369
43 | ACCGGAUGUGCUUUCCGGUCUGAUGAGUCAGUGUGGACGAAACAG [C30A A34U] | 0.66
44 | ACCGGAUGUGCUUUCCGGUCUGAUGAGUCAGUGGGGACGAAACAG [C30A A34G] | 0.628
45 | ACCGGAUGUGCUUUCCGGUCUGAUGAGUCAGUGCGGACGAAACAG [C30A A34C] | 0.798
46 | ACCGGAUGUGCUUUCCGGUCUGAUGAGUCAUUGAGGACGAAACAG [C30A G31U] | 1.07
47 | ACCGGAUGUGCUUUCCGGUCUGAUGAGUCACUGAGGACGAAACAG [C30A G31C] | 0.872
48 | ACCGGAUGUGCUUUCCGGUCUGAUGAGUCAAUGAGGACGAAACAG [C30A G31A] | 1.12
49 | ACCGGAUGUGCUUUCCGGUCUGAUGAGUUGGUGAGGACGAAACAG [C29U C30G] | 0.546
50 | ACCGGAUGUGCUUUCCGGUCUGAUGAGUUUGUGAGGACGAAACAG [C29U C30U] | 0.656
51 | ACCGGAUGUGCUUUCCGGUCUGAUGAGUUAGUGAGGACGAAACAG [C29U C30A] | 0.609
52 | ACCGGAUGUGCUUUCCGGUCUGAUGAGUCAGUGAGGACGAAACAC [C30A G45C] | 0.454
53 | ACCGGAUGUGCUUUCCGGUCUGAUGAGUCAGUGAGGACGAAACAA [C30A G45A] | 0.575
54 | ACCGGAUGUGCUUUCCGGUCUGAUGAGUCAGUGAGGACGAAACAU [C30A G45U] | 0.545
55 | ACCGGAUGUGCUUUCCGGUCUGAUGAGUCAGUGAUGACGAAACAG [C30A G35U] | 1.17
56 | ACCGGAUGUGCUUUCCGGUCUGAUGAGUCAGUGACGACGAAACAG [C30A G35C] | 0.793
57 | ACCGGAUGUGCUUUCCGGUCUGAUGAGUCAGUGAAGACGAAACAG [C30A G35A] | 0.765
